Measurements from patent publication US20160272683A1 (Novo Nordisk, published 2016).
Numbered stars: 1 amine (or outer) side, 2 acyl side, 3 side chain; on linkers, the order of the positions; unused ones are H or OH. * marks the point of attachment. C20 diacid = O=C(O)CCCCCCCCCCCCCCCCCCC(=O)*; C18 diacid = O=C(O)CCCCCCCCCCCCCCCCC(=O)*; γGlu = O=C(O)[C@H](CCC(=O)[*:2])N[*:1]; C14 diacid = O=C(O)CCCCCCCCCCCCC(=O)*

B1: [N-terminal(C18 diacid), 5H]mimylin (peptide)
peptide: {C18 diacid}-EASEHSTAALGRLSAELHELATLPRTETGPESP-NH2
SMILES: CC(C)C[C@H](NC(=O)[C@H](C)NC(=O)[C@H](C)NC(=O)[C@@H](NC(=O)[C@H](CO)NC(=O)[C@H](Cc1c[nH]cn1)NC(=O)[C@H](CCC(=O)O)NC(=O)[C@H](CO)NC(=O)[C@H](C)NC(=O)[C@H](CCC(=O)O)NC(=O)CCCCCCCCCCCCCCCCC(=O)O)[C@@H](C)O)C(=O)NCC(=O)N[C@@H](CCCNC(=N)N)C(=O)N[C@@H](CC(C)C)C(=O)N[C@@H](CO)C(=O)N[C@@H](C)C(=O)N[C@@H](CCC(=O)O)C(=O)N[C@@H](CC(C)C)C(=O)N[C@@H](Cc1c[nH]cn1)C(=O)N[C@@H](CCC(=O)O)C(=O)N[C@@H](CC(C)C)C(=O)N[C@@H](C)C(=O)N[C@H](C(=O)N[C@@H](CC(C)C)C(=O)N1CCC[C@H]1C(=O)N[C@@H](CCCNC(=N)N)C(=O)N[C@H](C(=O)N[C@@H](CCC(=O)O)C(=O)N[C@H](C(=O)NCC(=O)N1CCC[C@H]1C(=O)N[C@@H](CCC(=O)O)C(=O)N[C@@H](CO)C(=O)N1CCC[C@H]1C(N)=O)[C@@H](C)O)[C@@H](C)O)[C@@H](C)O
B2: [N-terminal(C18 diacid), 32H]mimylin (peptide)
peptide: {C18 diacid}-EASELSTAALGRLSAELHELATLPRTETGPEHP-NH2
SMILES: CC(C)C[C@H](NC(=O)[C@H](C)NC(=O)[C@H](C)NC(=O)[C@@H](NC(=O)[C@H](CO)NC(=O)[C@H](CC(C)C)NC(=O)[C@H](CCC(=O)O)NC(=O)[C@H](CO)NC(=O)[C@H](C)NC(=O)[C@H](CCC(=O)O)NC(=O)CCCCCCCCCCCCCCCCC(=O)O)[C@@H](C)O)C(=O)NCC(=O)N[C@@H](CCCNC(=N)N)C(=O)N[C@@H](CC(C)C)C(=O)N[C@@H](CO)C(=O)N[C@@H](C)C(=O)N[C@@H](CCC(=O)O)C(=O)N[C@@H](CC(C)C)C(=O)N[C@@H](Cc1c[nH]cn1)C(=O)N[C@@H](CCC(=O)O)C(=O)N[C@@H](CC(C)C)C(=O)N[C@@H](C)C(=O)N[C@H](C(=O)N[C@@H](CC(C)C)C(=O)N1CCC[C@H]1C(=O)N[C@@H](CCCNC(=N)N)C(=O)N[C@H](C(=O)N[C@@H](CCC(=O)O)C(=O)N[C@H](C(=O)NCC(=O)N1CCC[C@H]1C(=O)N[C@@H](CCC(=O)O)C(=O)N[C@@H](Cc1c[nH]cn1)C(=O)N1CCC[C@H]1C(N)=O)[C@@H](C)O)[C@@H](C)O)[C@@H](C)O
B3: [N-terminal(C18 diacid), 23Y]mimylin (peptide)
peptide: {C18 diacid}-EASELSTAALGRLSAELHELATYPRTETGPESP-NH2
SMILES: CC(C)C[C@H](NC(=O)[C@H](C)NC(=O)[C@H](C)NC(=O)[C@@H](NC(=O)[C@H](CO)NC(=O)[C@H](CC(C)C)NC(=O)[C@H](CCC(=O)O)NC(=O)[C@H](CO)NC(=O)[C@H](C)NC(=O)[C@H](CCC(=O)O)NC(=O)CCCCCCCCCCCCCCCCC(=O)O)[C@@H](C)O)C(=O)NCC(=O)N[C@@H](CCCNC(=N)N)C(=O)N[C@@H](CC(C)C)C(=O)N[C@@H](CO)C(=O)N[C@@H](C)C(=O)N[C@@H](CCC(=O)O)C(=O)N[C@@H](CC(C)C)C(=O)N[C@@H](Cc1c[nH]cn1)C(=O)N[C@@H](CCC(=O)O)C(=O)N[C@@H](CC(C)C)C(=O)N[C@@H](C)C(=O)N[C@H](C(=O)N[C@@H](Cc1ccc(O)cc1)C(=O)N1CCC[C@H]1C(=O)N[C@@H](CCCNC(=N)N)C(=O)N[C@H](C(=O)N[C@@H](CCC(=O)O)C(=O)N[C@H](C(=O)NCC(=O)N1CCC[C@H]1C(=O)N[C@@H](CCC(=O)O)C(=O)N[C@@H](CO)C(=O)N1CCC[C@H]1C(N)=O)[C@@H](C)O)[C@@H](C)O)[C@@H](C)O
B4: [N-terminal(C18 diacid-gGlu), des1, 30S]mimylin (peptide)
peptide: {C18 diacid-γGlu}-ASELSTAALGRLSAELHELATLPRTETGSESP-NH2
SMILES: CC(C)C[C@H](NC(=O)[C@H](C)NC(=O)[C@H](C)NC(=O)[C@@H](NC(=O)[C@H](CO)NC(=O)[C@H](CC(C)C)NC(=O)[C@H](CCC(=O)O)NC(=O)[C@H](CO)NC(=O)[C@H](C)NC(=O)CC[C@H](NC(=O)CCCCCCCCCCCCCCCCC(=O)O)C(=O)O)[C@@H](C)O)C(=O)NCC(=O)N[C@@H](CCCNC(=N)N)C(=O)N[C@@H](CC(C)C)C(=O)N[C@@H](CO)C(=O)N[C@@H](C)C(=O)N[C@@H](CCC(=O)O)C(=O)N[C@@H](CC(C)C)C(=O)N[C@@H](Cc1c[nH]cn1)C(=O)N[C@@H](CCC(=O)O)C(=O)N[C@@H](CC(C)C)C(=O)N[C@@H](C)C(=O)N[C@H](C(=O)N[C@@H](CC(C)C)C(=O)N1CCC[C@H]1C(=O)N[C@@H](CCCNC(=N)N)C(=O)N[C@H](C(=O)N[C@@H](CCC(=O)O)C(=O)N[C@H](C(=O)NCC(=O)N[C@@H](CO)C(=O)N[C@@H](CCC(=O)O)C(=O)N[C@@H](CO)C(=O)N1CCC[C@H]1C(N)=O)[C@@H](C)O)[C@@H](C)O)[C@@H](C)O
B5: [N-terminal(C18 diacid), 5V, 9V]mimylin (peptide)
peptide: {C18 diacid}-EASEVSTAVLGRLSAELHELATLPRTETGPESP-NH2
SMILES: CC(C)C[C@H](NC(=O)[C@H](CCC(=O)O)NC(=O)[C@H](Cc1c[nH]cn1)NC(=O)[C@H](CC(C)C)NC(=O)[C@H](CCC(=O)O)NC(=O)[C@H](C)NC(=O)[C@H](CO)NC(=O)[C@H](CC(C)C)NC(=O)[C@H](CCCNC(=N)N)NC(=O)CNC(=O)[C@H](CC(C)C)NC(=O)[C@@H](NC(=O)[C@H](C)NC(=O)[C@@H](NC(=O)[C@H](CO)NC(=O)[C@@H](NC(=O)[C@H](CCC(=O)O)NC(=O)[C@H](CO)NC(=O)[C@H](C)NC(=O)[C@H](CCC(=O)O)NC(=O)CCCCCCCCCCCCCCCCC(=O)O)C(C)C)[C@@H](C)O)C(C)C)C(=O)N[C@@H](C)C(=O)N[C@H](C(=O)N[C@@H](CC(C)C)C(=O)N1CCC[C@H]1C(=O)N[C@@H](CCCNC(=N)N)C(=O)N[C@H](C(=O)N[C@@H](CCC(=O)O)C(=O)N[C@H](C(=O)NCC(=O)N1CCC[C@H]1C(=O)N[C@@H](CCC(=O)O)C(=O)N[C@@H](CO)C(=O)N1CCC[C@H]1C(N)=O)[C@@H](C)O)[C@@H](C)O)[C@@H](C)O
B6: [N-terminal(C18 diacid)]mimylin (peptide)
peptide: {C18 diacid}-EASELSTAALGRLSAELHELATLPRTETGPESP-NH2
SMILES: CC(C)C[C@H](NC(=O)[C@H](C)NC(=O)[C@H](C)NC(=O)[C@@H](NC(=O)[C@H](CO)NC(=O)[C@H](CC(C)C)NC(=O)[C@H](CCC(=O)O)NC(=O)[C@H](CO)NC(=O)[C@H](C)NC(=O)[C@H](CCC(=O)O)NC(=O)CCCCCCCCCCCCCCCCC(=O)O)[C@@H](C)O)C(=O)NCC(=O)N[C@@H](CCCNC(=N)N)C(=O)N[C@@H](CC(C)C)C(=O)N[C@@H](CO)C(=O)N[C@@H](C)C(=O)N[C@@H](CCC(=O)O)C(=O)N[C@@H](CC(C)C)C(=O)N[C@@H](Cc1c[nH]cn1)C(=O)N[C@@H](CCC(=O)O)C(=O)N[C@@H](CC(C)C)C(=O)N[C@@H](C)C(=O)N[C@H](C(=O)N[C@@H](CC(C)C)C(=O)N1CCC[C@H]1C(=O)N[C@@H](CCCNC(=N)N)C(=O)N[C@H](C(=O)N[C@@H](CCC(=O)O)C(=O)N[C@H](C(=O)NCC(=O)N1CCC[C@H]1C(=O)N[C@@H](CCC(=O)O)C(=O)N[C@@H](CO)C(=O)N1CCC[C@H]1C(N)=O)[C@@H](C)O)[C@@H](C)O)[C@@H](C)O
B7: [N-terminal(C18 diacid), 5I, 9I]mimylin (peptide)
peptide: {C18 diacid}-EASEISTAILGRLSAELHELATLPRTETGPESP-NH2
SMILES: CC[C@H](C)[C@H](NC(=O)[C@H](C)NC(=O)[C@@H](NC(=O)[C@H](CO)NC(=O)[C@@H](NC(=O)[C@H](CCC(=O)O)NC(=O)[C@H](CO)NC(=O)[C@H](C)NC(=O)[C@H](CCC(=O)O)NC(=O)CCCCCCCCCCCCCCCCC(=O)O)[C@@H](C)CC)[C@@H](C)O)C(=O)N[C@@H](CC(C)C)C(=O)NCC(=O)N[C@@H](CCCNC(=N)N)C(=O)N[C@@H](CC(C)C)C(=O)N[C@@H](CO)C(=O)N[C@@H](C)C(=O)N[C@@H](CCC(=O)O)C(=O)N[C@@H](CC(C)C)C(=O)N[C@@H](Cc1c[nH]cn1)C(=O)N[C@@H](CCC(=O)O)C(=O)N[C@@H](CC(C)C)C(=O)N[C@@H](C)C(=O)N[C@H](C(=O)N[C@@H](CC(C)C)C(=O)N1CCC[C@H]1C(=O)N[C@@H](CCCNC(=N)N)C(=O)N[C@H](C(=O)N[C@@H](CCC(=O)O)C(=O)N[C@H](C(=O)NCC(=O)N1CCC[C@H]1C(=O)N[C@@H](CCC(=O)O)C(=O)N[C@@H](CO)C(=O)N1CCC[C@H]1C(N)=O)[C@@H](C)O)[C@@H](C)O)[C@@H](C)O

Molecular target: T1, human amylin 3(a) receptor (human calcitonin receptor co-expressed with RAMP-3) (human, UniProt P30988 25-474; O60896 24-148, limits assumed)
T1 sequence (looked up) 1: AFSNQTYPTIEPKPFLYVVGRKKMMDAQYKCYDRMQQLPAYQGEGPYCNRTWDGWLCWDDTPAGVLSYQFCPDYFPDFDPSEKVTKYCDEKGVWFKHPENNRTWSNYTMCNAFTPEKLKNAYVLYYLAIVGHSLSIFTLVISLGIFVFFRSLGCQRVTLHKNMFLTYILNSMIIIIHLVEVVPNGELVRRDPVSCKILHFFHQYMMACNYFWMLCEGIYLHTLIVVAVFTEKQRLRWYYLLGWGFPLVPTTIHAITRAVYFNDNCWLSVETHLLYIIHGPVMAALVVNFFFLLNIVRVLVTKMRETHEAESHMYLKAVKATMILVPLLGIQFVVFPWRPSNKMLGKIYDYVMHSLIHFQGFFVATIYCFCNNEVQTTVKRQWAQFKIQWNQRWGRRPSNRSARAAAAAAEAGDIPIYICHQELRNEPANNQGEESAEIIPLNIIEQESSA
T1 sequence (looked up) 2: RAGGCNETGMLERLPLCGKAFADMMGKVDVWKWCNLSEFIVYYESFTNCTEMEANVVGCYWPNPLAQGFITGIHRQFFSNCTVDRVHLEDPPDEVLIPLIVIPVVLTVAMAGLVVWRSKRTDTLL
Assay: cell-based or functional assay

Binder	hAmylin-R funct. EC50 (pM)
B1	8
B2	20
{C14 diacid-γGlu}-ASELSTAALGRLSAELHELATLPRTETGPESP-NH2 [[N-terminal(C14 diacid-gGlu), des1]mimylin]	8
B3	11
{C18 diacid}-EASELSTAALGRLSAELHELATLPRTETGSGSP-NH2 [[N-terminal(C18 diacid), 30S, 31G]mimylin]	9
{C20 diacid}-EASELSTAALGRLSAELHELATLPRTETGSGSP-NH2 [[N-terminal(C20 diacid), 30S, 31G]mimylin]	11
B4	9
B5	20
B6	8
B7	10

Molecular target: T2, human calcitonin receptor (human, UniProt P30988 25-474)
T2 sequence (looked up): T1 sequence (looked up) 1
Assay: cell-based or functional assay

Binder	hCTR funct. EC50 (pM)
B1	6
B2	17
{C14 diacid-γGlu}-ASELSTAALGRLSAELHELATLPRTETGPESP-NH2 [[N-terminal(C14 diacid-gGlu), des1]mimylin]	3
B3	7
{C18 diacid}-EASELSTAALGRLSAELHELATLPRTETGSGSP-NH2 [[N-terminal(C18 diacid), 30S, 31G]mimylin]	6
{C20 diacid}-EASELSTAALGRLSAELHELATLPRTETGSGSP-NH2 [[N-terminal(C20 diacid), 30S, 31G]mimylin]	9
B4	4
B5	14
B6	5
B7	7
